The supplement of paper PMC10065799, “High-throughput profiling of sequence recognition by tyrosine kinases and SH2 domains using bacterial peptide display” (eLife, 2023)

Tests used:
Fer (mouse) = experiment: phosphorylation enrichment, bacterial display (enrichment ratio); higher = better substrate or ligand; peptides without Tyr show the background
Fyn = Fyn (UniProt P06241); experiment: as above
AncSZ = experiment: as above
EPHB2 = EPHB2 (UniProt P29323); experiment: as above
Fes = Fes (UniProt P07332); experiment: as above
c-Abl (mouse) = experiment: as above
FGFR3 = FGFR3 (UniProt P22607); experiment: as above
Jak2 = Jak2 (UniProt O60674); experiment: as above
FGFR1 = FGFR1 (UniProt P11362); experiment: as above
EPHB1 = EPHB1 (UniProt P54762); experiment: as above
Hck = Hck (UniProt P08631); experiment: as above
c-Src = experiment: as above
MERTK = MERTK (UniProt Q12866); experiment: as above
c-Src SH2 = experiment: SH2 binding enrichment of the phosphorylated peptide, bacterial display (enrichment ratio); higher = better substrate or ligand; peptides without Tyr show the background
SHP2-C SH2 = experiment: as above
Grb2 SH2 = Grb2 SH2 (UniProt P62993); experiment: as above
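Throughout, for SH2 binding enrichment of the phosphorylated peptide, bacterial display: peptide library displayed on the E. coli surface as eCPX fusions, selected cells deep-sequenced, score is each peptide's frequency after selection divided by its frequency in the input.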
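Throughout, for phosphorylation enrichment, bacterial display: 11-residue human phosphosite peptides and single-mutation variants displayed on the E. coli surface, counted by deep sequencing, each peptide's frequency after selection divided by its frequency in the unselected input library; frequency after pTyr selection over input frequency; kinase dosed for 20-30% of maximal phosphorylation in three min.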

Chain of Fyn (P06241 whole entry, looked up): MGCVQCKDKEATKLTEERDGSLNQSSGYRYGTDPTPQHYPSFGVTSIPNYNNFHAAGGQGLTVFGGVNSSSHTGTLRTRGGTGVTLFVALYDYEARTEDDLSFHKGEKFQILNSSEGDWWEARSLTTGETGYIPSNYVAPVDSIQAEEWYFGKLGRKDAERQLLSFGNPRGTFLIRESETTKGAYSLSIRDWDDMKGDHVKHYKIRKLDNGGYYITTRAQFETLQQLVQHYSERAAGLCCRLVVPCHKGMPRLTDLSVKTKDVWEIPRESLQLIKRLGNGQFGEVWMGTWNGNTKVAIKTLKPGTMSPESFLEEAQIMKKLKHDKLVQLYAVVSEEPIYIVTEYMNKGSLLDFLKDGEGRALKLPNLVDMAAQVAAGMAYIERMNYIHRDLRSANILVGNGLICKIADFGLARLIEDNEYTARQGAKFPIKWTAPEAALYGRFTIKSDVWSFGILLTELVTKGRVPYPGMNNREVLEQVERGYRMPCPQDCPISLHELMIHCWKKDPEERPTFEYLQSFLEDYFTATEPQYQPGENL
Chain of MERTK (Q12866 whole entry, looked up): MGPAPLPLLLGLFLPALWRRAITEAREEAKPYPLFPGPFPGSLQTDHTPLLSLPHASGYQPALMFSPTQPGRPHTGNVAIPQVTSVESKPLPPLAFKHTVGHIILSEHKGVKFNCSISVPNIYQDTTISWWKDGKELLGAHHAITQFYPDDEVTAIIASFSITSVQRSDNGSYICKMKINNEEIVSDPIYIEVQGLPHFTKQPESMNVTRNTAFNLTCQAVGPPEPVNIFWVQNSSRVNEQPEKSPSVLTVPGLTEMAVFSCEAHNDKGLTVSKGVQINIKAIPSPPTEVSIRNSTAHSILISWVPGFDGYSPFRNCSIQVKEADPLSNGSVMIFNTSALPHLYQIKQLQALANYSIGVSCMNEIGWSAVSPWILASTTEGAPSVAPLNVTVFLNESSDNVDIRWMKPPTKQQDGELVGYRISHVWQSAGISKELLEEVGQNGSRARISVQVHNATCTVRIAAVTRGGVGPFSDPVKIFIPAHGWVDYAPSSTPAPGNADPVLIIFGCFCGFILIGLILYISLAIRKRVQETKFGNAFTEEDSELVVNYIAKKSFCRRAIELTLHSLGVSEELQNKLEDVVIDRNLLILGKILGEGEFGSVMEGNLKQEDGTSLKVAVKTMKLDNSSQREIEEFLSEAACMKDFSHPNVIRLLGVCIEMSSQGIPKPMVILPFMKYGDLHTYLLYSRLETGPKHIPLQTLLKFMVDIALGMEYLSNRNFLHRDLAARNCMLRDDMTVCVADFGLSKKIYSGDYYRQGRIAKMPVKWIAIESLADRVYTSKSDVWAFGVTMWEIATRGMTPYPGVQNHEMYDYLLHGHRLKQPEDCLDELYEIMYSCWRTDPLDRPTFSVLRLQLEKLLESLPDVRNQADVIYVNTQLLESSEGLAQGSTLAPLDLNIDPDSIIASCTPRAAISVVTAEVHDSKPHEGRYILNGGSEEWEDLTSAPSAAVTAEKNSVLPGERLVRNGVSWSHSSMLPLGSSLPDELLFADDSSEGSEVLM
Chain of Grb2 SH2 (P62993 whole entry, looked up, the tested form may be a part): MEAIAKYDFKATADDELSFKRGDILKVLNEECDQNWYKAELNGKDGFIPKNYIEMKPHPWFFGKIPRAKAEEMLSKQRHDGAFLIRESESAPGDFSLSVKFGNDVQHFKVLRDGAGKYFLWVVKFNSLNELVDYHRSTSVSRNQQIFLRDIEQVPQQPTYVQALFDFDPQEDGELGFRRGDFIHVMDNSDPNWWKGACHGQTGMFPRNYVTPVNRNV
Chain of EPHB2 (P29323 whole entry, looked up): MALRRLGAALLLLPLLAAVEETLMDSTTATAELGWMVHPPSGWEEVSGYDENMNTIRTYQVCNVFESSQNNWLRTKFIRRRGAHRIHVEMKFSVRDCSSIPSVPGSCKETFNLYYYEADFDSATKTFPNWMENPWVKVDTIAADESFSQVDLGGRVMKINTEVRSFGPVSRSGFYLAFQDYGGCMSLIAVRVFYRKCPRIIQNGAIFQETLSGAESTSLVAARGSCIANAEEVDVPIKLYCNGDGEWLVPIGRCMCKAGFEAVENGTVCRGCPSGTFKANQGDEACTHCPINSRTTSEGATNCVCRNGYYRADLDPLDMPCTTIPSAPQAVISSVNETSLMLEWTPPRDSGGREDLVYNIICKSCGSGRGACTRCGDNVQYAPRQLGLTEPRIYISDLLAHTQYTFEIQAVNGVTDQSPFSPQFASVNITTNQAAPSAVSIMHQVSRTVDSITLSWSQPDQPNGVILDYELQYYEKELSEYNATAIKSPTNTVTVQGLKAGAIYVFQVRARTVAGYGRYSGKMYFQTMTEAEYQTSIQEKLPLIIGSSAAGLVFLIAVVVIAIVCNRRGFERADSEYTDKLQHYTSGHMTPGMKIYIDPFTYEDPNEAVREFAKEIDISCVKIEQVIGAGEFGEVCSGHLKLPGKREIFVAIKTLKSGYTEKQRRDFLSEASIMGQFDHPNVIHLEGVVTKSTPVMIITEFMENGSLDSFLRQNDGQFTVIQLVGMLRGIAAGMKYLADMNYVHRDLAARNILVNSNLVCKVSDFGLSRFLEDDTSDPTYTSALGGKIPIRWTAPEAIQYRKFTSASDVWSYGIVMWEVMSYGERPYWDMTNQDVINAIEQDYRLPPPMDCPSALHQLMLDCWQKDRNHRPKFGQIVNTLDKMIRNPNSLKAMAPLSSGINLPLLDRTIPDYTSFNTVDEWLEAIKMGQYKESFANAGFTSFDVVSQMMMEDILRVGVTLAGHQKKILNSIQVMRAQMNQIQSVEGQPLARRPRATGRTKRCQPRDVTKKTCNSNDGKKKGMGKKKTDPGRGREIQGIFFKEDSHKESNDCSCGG
Chain of Hck (P08631 whole entry, looked up): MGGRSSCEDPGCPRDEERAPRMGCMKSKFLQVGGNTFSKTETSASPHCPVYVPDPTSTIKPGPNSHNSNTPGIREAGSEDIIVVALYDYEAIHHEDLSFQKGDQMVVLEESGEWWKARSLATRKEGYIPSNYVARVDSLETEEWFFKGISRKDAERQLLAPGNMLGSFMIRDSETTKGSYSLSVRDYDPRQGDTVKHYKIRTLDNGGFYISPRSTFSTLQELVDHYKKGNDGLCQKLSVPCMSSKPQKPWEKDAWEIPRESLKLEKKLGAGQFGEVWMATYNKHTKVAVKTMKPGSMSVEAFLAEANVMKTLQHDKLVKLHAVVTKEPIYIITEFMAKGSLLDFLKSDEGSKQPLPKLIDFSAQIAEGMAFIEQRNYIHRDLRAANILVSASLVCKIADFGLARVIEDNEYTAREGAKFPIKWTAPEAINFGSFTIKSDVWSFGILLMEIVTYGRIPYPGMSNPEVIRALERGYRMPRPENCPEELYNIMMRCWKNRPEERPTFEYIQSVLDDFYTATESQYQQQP
Chain of EPHB1 (P54762 whole entry, looked up): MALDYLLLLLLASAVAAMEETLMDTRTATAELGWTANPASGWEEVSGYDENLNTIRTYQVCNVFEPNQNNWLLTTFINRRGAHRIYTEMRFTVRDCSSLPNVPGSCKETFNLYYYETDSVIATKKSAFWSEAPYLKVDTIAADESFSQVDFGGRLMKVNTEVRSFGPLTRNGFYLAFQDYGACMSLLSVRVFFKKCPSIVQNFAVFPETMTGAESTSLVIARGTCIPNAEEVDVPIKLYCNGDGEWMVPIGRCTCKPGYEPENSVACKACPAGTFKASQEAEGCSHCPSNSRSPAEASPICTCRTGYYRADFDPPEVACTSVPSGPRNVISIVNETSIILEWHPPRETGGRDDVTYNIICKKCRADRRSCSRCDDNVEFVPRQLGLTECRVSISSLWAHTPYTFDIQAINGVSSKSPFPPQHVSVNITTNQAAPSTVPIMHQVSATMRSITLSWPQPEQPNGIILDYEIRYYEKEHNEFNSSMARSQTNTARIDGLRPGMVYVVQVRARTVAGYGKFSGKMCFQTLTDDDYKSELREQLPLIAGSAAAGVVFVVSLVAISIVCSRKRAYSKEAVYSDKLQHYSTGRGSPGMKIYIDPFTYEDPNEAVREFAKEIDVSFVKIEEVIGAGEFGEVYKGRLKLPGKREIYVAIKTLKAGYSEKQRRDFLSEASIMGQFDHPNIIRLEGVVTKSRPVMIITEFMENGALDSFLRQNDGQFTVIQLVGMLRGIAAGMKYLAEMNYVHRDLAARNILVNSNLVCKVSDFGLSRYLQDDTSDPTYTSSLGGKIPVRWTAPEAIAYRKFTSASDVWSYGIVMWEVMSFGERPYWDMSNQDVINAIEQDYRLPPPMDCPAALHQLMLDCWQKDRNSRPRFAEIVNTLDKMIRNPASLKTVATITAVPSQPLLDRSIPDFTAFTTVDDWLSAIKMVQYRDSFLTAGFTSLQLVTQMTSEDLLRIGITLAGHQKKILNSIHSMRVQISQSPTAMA

Row | Sequence | phosphorylation enrichment (Fer (mouse)) | phosphorylation enrichment (Fyn) | phosphorylation enrichment (AncSZ) | phosphorylation enrichment (EPHB2) | phosphorylation enrichment (Fes) | phosphorylation enrichment (c-Abl (mouse)) | phosphorylation enrichment (FGFR3) | phosphorylation enrichment (Jak2) | phosphorylation enrichment (FGFR1) | phosphorylation enrichment (EPHB1) | phosphorylation enrichment (Hck) | phosphorylation enrichment (c-Src) | phosphorylation enrichment (MERTK) | SH2 binding enrichment (c-Src SH2) | SH2 binding enrichment (SHP2-C SH2) | SH2 binding enrichment (Grb2 SH2)
1 | APQFTYAQGGQ [FLNA_Y1763_YF] | 0.304 | 0.574 | 0.645 | 0.739 | 0.706 | 0.421 | 0.628 | 0.42 | 0.585 | 0.372 | 0.415 | 0.538 | 0.26 | 0.546 | 0.611 | 0.705
2 | ARMTNCGLPRF [TSPAN12_Y138_Y138C_YF] | 0.352 | 0.322 | 0.58 | 0.421 | 0.689 | 0.591 | 0.453 | 0.492 | 0.387 | 0.292 | 0.358 | 0.323 | 0.368 | 0.74 | 1 | 1.06
3 | ARSMEYLAEQK [MST1R_Y1198] | 0.403 | 0.585 | 0.755 | 0.493 | 0.839 | 0.655 | 0.622 | 1.08 | 0.471 | 0.488 | 0.622 | 0.474 | 0.548 | 0.384 | 0.611 | 0.819
4 | ASLEAYCKHKF [RXRA_Y403_YF] | 0.585 | 0.468 | 0.83 | 0.66 | 1.07 | 0.687 | 0.915 | 0.697 | 0.654 | 0.572 | 0.519 | 0.497 | 0.556 | 0.767 | 0.868 | 0.963
5 | ASMAKYFASGI [ACADSB_Y372_E376G_YF] | 0.374 | 0.386 | 0.544 | 0.517 | 0.79 | 0.574 | 0.441 | 0.566 | 0.424 | 0.339 | 0.404 | 0.386 | 0.407 | 0.445 | 0.86 | 1.01
6 | ASMAKYYASGI [ACADSB_Y372_E376G] | 0.473 | 0.451 | 0.71 | 0.556 | 0.653 | 0.851 | 0.568 | 0.604 | 0.36 | 0.327 | 0.434 | 0.444 | 0.518 | 0.466 | 0.595 | 0.739
7 | ATHSGYRLNDY [CLDN14_Y233] | 0.395 | 0.389 | 0.568 | 0.491 | 0.739 | 0.556 | 0.491 | 0.706 | 0.503 | 0.518 | 0.397 | 0.493 | 0.393 | 0.49 | 0.623 | 0.709
8 | AVISVYDLVAF [PSEN1_Y256_V261F] | 16 | 8.21 | 1.37 | 9.61 | 2.23 | 0.887 | 0.893 | 1.08 | 0.72 | 9.68 | 7.4 | 5.87 | 8.85 | 0.796 | 0.837 | 0.912
9 | AVLSLYASGCT [ACTA2_Y145_R149C] | 0.576 | 0.538 | 1.2 | 0.658 | 1.39 | 0.965 | 0.811 | 1.2 | 0.512 | 0.825 | 0.634 | 0.46 | 0.432 | 0.379 | 0.547 | 0.861
10 | CASQLYPRHKH [DCTN4_Y263] | 0.44 | 0.38 | 0.673 | 0.464 | 0.928 | 0.807 | 0.639 | 1.02 | 0.533 | 0.43 | 0.483 | 0.405 | 0.428 | 0.916 | 0.865 | 0.975
11 | CETMEYLESKQ [BTK_Y511_A508T] | 0.705 | 0.578 | 1.6 | 0.734 | 1.56 | 0.98 | 0.966 | 1.43 | 0.688 | 0.737 | 0.677 | 0.531 | 0.527 | 0.427 | 0.555 | 0.63
12 | CHKRTYKVTGL | 0.398 | 0.417 | 0.587 | 0.357 | 0.667 | 0.564 | 0.465 | 0.657 | 0.362 | 0.405 | 0.401 | 0.455 | 0.375 | 1.07 | 0.898 | 1.13
13 | CITIHYNFMCN [TP53_Y234_T230I_YF] | 0.574 | 0.46 | 0.946 | 0.711 | 1.44 | 0.661 | 0.886 | 1.31 | 0.582 | 0.59 | 0.489 | 0.607 | 0.456 | 1.52 | 1.43 | 2.19
14 | CLGNQYVNVMN [SLC3A1_Y461_R456C] | 0.475 | 0.403 | 1.11 | 0.608 | 1.05 | 0.689 | 0.955 | 1 | 0.567 | 0.588 | 0.448 | 0.437 | 0.336 | 2.27 | 1.11 | 18.2
15 | CNPLRYPTIMI [OR6K6_Y160] | 0.419 | 0.524 | 0.946 | 0.758 | 0.962 | 0.737 | 0.84 | 0.871 | 0.584 | 0.49 | 0.5 | 0.464 | 0.482 | 0.458 | 0.829 | 0.822
16 | CNRADYSKLAP [GNE_Y22] | 0.485 | 0.458 | 0.749 | 0.607 | 0.844 | 0.556 | 0.61 | 0.621 | 0.472 | 0.613 | 0.459 | 0.412 | 0.609 | 1.18 | 0.622 | 0.793
